Five proteins from patent US20140370568A1, “Specialized (iso)eugenol-4-O-methyltransferases (s-IEMTs) and Methods of Making and Using the Same” (Brookhaven Science Associates, LLC, priority 2013, published 2014) can be followed below.

Common to all, as to format: biochemical, C. breweri
Substrate in data set [1]: COc1cc(/C=C/CO)ccc1O
As to the kind of experiment: Enzyme kinetics of MOMT9-1 (4-O-methylation of phenolic substrates). The conditions noted are these: other: MOMT9-1. The text has this: (§1) Further shaping of the substrate binding pocket targeting residues Thr-319, Ile-165, Leu-133 and Leu-143 by Iterative Saturation Mutagenesis using MOMT8-1 as the starting point lead to the generation of MOMT9-1 which carried all of the substitutions of MOMT8-1 and an additional substitution of Met for Thr at position 319. Thus MOMT9-1 is a specialized (iso)eugenol-4-O-methyltransferase (s-IEMT) having 6-fold higher specific activity with coniferyl alcohol as the substrate compared to its specific activity with sinapyl alcohol as substrate. The s-IEMT designated MOMT9-1 comprises a specialized (iso)eugenol-4-O-methyltransferase having the following substitutions: T133L/E165I/F175I/F166W/H169F/M26H/S30R/V33S/T319M where amine acid residue numbers correspond to those of SEQ ID NO. 1.
(§2) Each of the s-IEMTs was isolated following expression in bacterial cells of nucleic acid sequences encoding the enzymes. The isolated enzymes were analyzed for their substrate versatility, specificity and enzyme kinetics on various phenolic substrates.

Substrate in data set [2]: COc1cc(/C=C/CO)cc(OC)c1O
Described as above. To be noted: other: MOMT9-1.
Source text: as §1, §2

Substrate in data set [3]: COc1cc(/C=C/CO)ccc1O
As to the kind of experiment: Enzyme kinetics of MOMT8-1 (4-O-methylation of phenolic substrates). To be noted: other: MOMT8-1.
Source text: (§3) The first library examined amino acid substitutions at positions not previously explored, i.e., Met-26, Ser-30 and Val-33. The specialized (iso)eugenol-4-O-methyltransferase (s-IEMT) having all of the MOMT-5 substitutions and the additional substitution of His for Met at position 26, Arg for Ser at 30 and Ser for Val at 33 was designated MOMT8-1. The ratio of its activity for methylation of p-coniferyl alcohol versus methylation of p-sinapyl alcohol was 7.5:1 whereas the ratio of activity of MOMT-5 was about 4.2:1.
as §2

Substrate in data set [4]: COc1cc(/C=C/CO)cc(OC)c1O
The description is as above. To be noted: other: MOMT8-1.
Source text: as §3, §2

Substrate in data set [5]: COc1cc(/C=C/CO)cc(O)c1O
As to the kind of experiment: Enzyme kinetics of MOMT8-3 (4-O-methylation of phenolic substrates). To be noted: other: MOMT8-3. As to the method: as §2
(§4) Iso-synapyl alcohol is thought to have the potential to be incorporated into lignin. These two additional specialized IEMT's having eight amino acid substitutions are designated as follows and have the indicated substitutions:
(§5) The specific activity of the various m-IEMT (MOMT-5) and s-IEMTs (MOMT8-2 and MOMT8-3) are shown in Table 4 and enzyme kinetic analysis is shown in Table 5.

Substrate in data set [6]: COc1cc(/C=C/CO)ccc1O
Described as above. The conditions noted are these: other: MOMT8-3. As to the method:
as §2, §4, §5

Substrate in data set [7]: COc1cc(/C=C/CO)cc(OC)c1O
The description is as above. The conditions noted are these: other: MOMT8-3. As to the method:
as §2, §4, §5

Substrate in data set [8]: COc1cc(/C=C/CO)cc(O)c1O
In words: Enzyme kinetics of MOMT8-2 (4-O-methylation of phenolic substrates). The conditions noted are these: other: MOMT8-2. As to the method: as §2, §4, §5

Substrate in data set [9]: COc1cc(/C=C/CO)ccc1O
The description is as above. The conditions noted are these: other: MOMT8-2. The method, then: as §2, §4, §5

Substrate in data set [10]: COc1cc(/C=C/CO)cc(OC)c1O
Described as above. The conditions noted are these: other: MOMT8-2. As to the method:
as §2, §4, §5

Substrate in data set [11]: COc1cc(/C=C/CO)cc(O)c1O
In words: Enzyme kinetics of MOMT-5 (4-O-methylation of phenolic substrates). The conditions noted are these: other: MOMT-5.
Source text: (§6) Starting with a modified (iso)eugenol-4-O-methyltransferase (m-IEMT) previously designated MOMT-5 having the five substitutions Leu for Thr at 133, Ile for Glu at 165, Ile for Phe at 175, Trp for Phe at 166 and Phe for His at 169 (T133L/E165I/F175I/F166W/H169F), where the amino acid residue numbers correspond to those for the C. breweri (iso)eugenol-4-O-methyltransferase protein (SEQ ID NO. 1), the synergistic effects of simultaneously modifying adjacent amino acids located in the substrate binding pocket have been explored. Specialized (iso)eugenol-4-O-methyltransferases (s-IEMTs) were generated that have relatively little activity on sinapyl alcohol compared to activity on p-coniferyl alcohol. Some species of s-IEMT have enhanced activity toward 4-O-methylation of ferulic acid. Additional species of s-IEMT have the capacity to generate iso-sinapyl alcohol. These s-IEMTs are useful for altering lignin precursors in plants, altering lignin composition in plants, and for producing potentially useful chemicals and chemical feedstock in plants as well as in different heterologous expression systems. […]
as §2, §5

Substrate in data set [12]: COc1cc(/C=C/CO)ccc1O
Described as above. The conditions noted are these: other: MOMT-5.
Source text: as §6, §2, §5

Substrate in data set [13]: COc1cc(/C=C/CO)cc(OC)c1O
The description is as above. The conditions noted are these: other: MOMT-5.
Source text: as §6, §2, §5

B1: C. breweri (iso)eugenol-4-O-methyltransferase (SEQ ID NO. 1) variant MOMT9-1, T133L/E165I/F175I/F166W/H169F/M26H/S30R/V33S/T319M (Clarkia breweri; … (protein)
chain: STGNAEIQIIPTHSSDEEANLFAHQLARAASLPMALKAAIELDVLEIMAKSVPPSGYISPAEIAAQLPTTNPEAPVMLDRVLRLLASYSVVTYTLRELPSGKVERLYGLAPVCKFLTKNEDGVSLAPFLLLATDKVLLEPWFYLKDAILEGGIPFNKAYGMNIWDYFGTDHRINKVFNKGMSSNSTITMKKILEMYNGFEGLTTIVDVGGGTGAVASMIVAKYPSINAINFDLPHVIQDAPAFSGVEHLGGDMFDGVPKGDAIFIKWICHDWSDEHCLKLLKNCYAALPDHGKVIVAEYILPPSPDPSIATKVVIHMDALMLAYNPGGKERTEKEFQALAMASGFRGFKVASCAFNTYVMEFLKTA
Regarding B1, in [1], the Michaelis-Menten constant (Km) came to 16.1 ± 1.4 µM, the Vmax was 88.4 ± 1.7 nmol/mg/min and the turnover number (kcat) stood at 0.063 ± 0.001 s⁻¹. Moreover, in data set [2], the Michaelis-Menten constant (Km) turned out to be 109.5 ± 4.0 µM, the Vmax was 24.2 ± 0.3 nmol/mg/min and the catalytic constant (kcat) was 0.017 ± 0.0002 s⁻¹.

B2: C. breweri (iso)eugenol-4-O-methyltransferase (SEQ ID NO. 1) variant MOMT8-1, T133L/E165I/F175I/F166W/H169F/M26H/S30R/V33S (Clarkia breweri; … (protein)
chain: STGNAEIQIIPTHSSDEEANLFAHQLARAASLPMALKAAIELDVLEIMAKSVPPSGYISPAEIAAQLPTTNPEAPVMLDRVLRLLASYSVVTYTLRELPSGKVERLYGLAPVCKFLTKNEDGVSLAPFLLLATDKVLLEPWFYLKDAILEGGIPFNKAYGMNIWDYFGTDHRINKVFNKGMSSNSTITMKKILEMYNGFEGLTTIVDVGGGTGAVASMIVAKYPSINAINFDLPHVIQDAPAFSGVEHLGGDMFDGVPKGDAIFIKWICHDWSDEHCLKLLKNCYAALPDHGKVIVAEYILPPSPDPSIATKVVIHTDALMLAYNPGGKERTEKEFQALAMASGFRGFKVASCAFNTYVMEFLKTA
Regarding B2, in data set [3], the Km is 16.1 ± 1.3 µM, the Vmax is 68.1 ± 1.6 nmol/mg/min and the kcat was found to be 0.049 ± 0.001 s⁻¹. In [4], the Km came to 26.3 ± 4.1 µM, the maximal velocity (Vmax) was found to be 8.5 ± 0.3 nmol/mg/min and the kcat was 0.006 ± 0.000 s⁻¹.

B3: C. breweri (iso)eugenol-4-O-methyltransferase (SEQ ID NO. 1) variant MOMT8-3, T133L/E165I/F175I/F166W/H169F/M26S/S30F/V33G (Clarkia breweri; … (protein)
chain: STGNAEIQIIPTHSSDEEANLFASQLAFAAGLPMALKAAIELDVLEIMAKSVPPSGYISPAEIAAQLPTTNPEAPVMLDRVLRLLASYSVVTYTLRELPSGKVERLYGLAPVCKFLTKNEDGVSLAPFLLLATDKVLLEPWFYLKDAILEGGIPFNKAYGMNIWDYFGTDHRINKVFNKGMSSNSTITMKKILEMYNGFEGLTTIVDVGGGTGAVASMIVAKYPSINAINFDLPHVIQDAPAFSGVEHLGGDMFDGVPKGDAIFIKWICHDWSDEHCLKLLKNCYAALPDHGKVIVAEYILPPSPDPSIATKVVIHTDALMLAYNPGGKERTEKEFQALAMASGFRGFKVASCAFNTYVMEFLKTA
As for B3, in [5], the Michaelis-Menten constant (Km) worked out at 65.4 ± 13.0 µM, the Vmax came to 0.145 µmol/min/mg, the turnover number (kcat) turned out to be 0.104 ± 0.006 s⁻¹ and the catalytic efficiency (kcat/Km) was 1590 M⁻¹ s⁻¹. Also, in data set [6], the Km was 23.3 ± 2.4 µM, the Vmax amounted to 0.0735 µmol/min/mg, the kcat worked out at 0.053 ± 0.001 s⁻¹ and the specificity constant (kcat/Km) came out at 2270 M⁻¹ s⁻¹. Further, in [7], the Km turned out to be 35.9 ± 9.8 µM, the Vmax turned out to be 0.0515 µmol/min/mg, the turnover number (kcat) was 0.036 ± 0.003 s⁻¹ and the kcat/Km is 1000 M⁻¹ s⁻¹.

B4: C. breweri (iso)eugenol-4-O-methyltransferase (SEQ ID NO. 1) variant MOMT8-2, T133L/E165I/F175I/F166W/H169F/M26S/S30F/V33Y (Clarkia breweri; … (protein)
chain: STGNAEIQIIPTHSSDEEANLFASQLAFAAYLPMALKAAIELDVLEIMAKSVPPSGYISPAEIAAQLPTTNPEAPVMLDRVLRLLASYSVVTYTLRELPSGKVERLYGLAPVCKFLTKNEDGVSLAPFLLLATDKVLLEPWFYLKDAILEGGIPFNKAYGMNIWDYFGTDHRINKVFNKGMSSNSTITMKKILEMYNGFEGLTTIVDVGGGTGAVASMIVAKYPSINAINFDLPHVIQDAPAFSGVEHLGGDMFDGVPKGDAIFIKWICHDWSDEHCLKLLKNCYAALPDHGKVIVAEYILPPSPDPSIATKVVIHTDALMLAYNPGGKERTEKEFQALAMASGFRGFKVASCAFNTYVMEFLKTA
B4: in data set [8], the Michaelis-Menten constant (Km) was 57.9 ± 13.0 µM, the Vmax was found to be 0.123 µmol/min/mg, the kcat was found to be 0.088 ± 0.006 s⁻¹ and the specificity constant (kcat/Km) was 1520 M⁻¹ s⁻¹. Also, in data set [9], the Km was 15.9 ± 1.7 µM, the Vmax is 0.0322 µmol/min/mg, the catalytic constant (kcat) amounted to 0.023 ± 0.001 s⁻¹ and the kcat/Km worked out at 1450 M⁻¹ s⁻¹. Besides, in data set [10], the Michaelis-Menten constant (Km) was determined as 35.2 ± 9.8 µM, the Vmax was 0.0379 µmol/min/mg, the kcat came to 0.027 ± 0.002 s⁻¹ and the kcat/Km came to 767 M⁻¹ s⁻¹.

B5: C. breweri (iso)eugenol-4-O-methyltransferase (SEQ ID NO. 1) variant MOMT-5, T133L/E165I/F175I/F166W/H169F (Clarkia breweri; E165I/F166W/F175I/H169F/T133L) (protein)
chain: STGNAEIQIIPTHSSDEEANLFAMQLASAAVLPMALKAAIELDVLEIMAKSVPPSGYISPAEIAAQLPTTNPEAPVMLDRVLRLLASYSVVTYTLRELPSGKVERLYGLAPVCKFLTKNEDGVSLAPFLLLATDKVLLEPWFYLKDAILEGGIPFNKAYGMNIWDYFGTDHRINKVFNKGMSSNSTITMKKILEMYNGFEGLTTIVDVGGGTGAVASMIVAKYPSINAINFDLPHVIQDAPAFSGVEHLGGDMFDGVPKGDAIFIKWICHDWSDEHCLKLLKNCYAALPDHGKVIVAEYILPPSPDPSIATKVVIHTDALMLAYNPGGKERTEKEFQALAMASGFRGFKVASCAFNTYVMEFLKTA
As to B5, in [11], the Michaelis constant (Km) came out at 105.0 ± 11.2 µM, the Vmax was 0.101 µmol/min/mg, the catalytic constant (kcat) was found to be 0.072 ± 0.003 s⁻¹ and the kcat/Km stood at 686 M⁻¹ s⁻¹. In data set [12], the Km stood at 11.4 ± 1.6 µM, the Vmax turned out to be 96.1 ± 3.8 nmol/mg/min and the turnover number (kcat) was found to be 0.069 ± 0.009 s⁻¹. Further, in [13], the Michaelis constant (Km) was found to be 14.7 ± 2.3 µM, the Vmax is 46.6 ± 1.5 nmol/mg/min and the catalytic constant (kcat) amounted to 0.033 ± 0.001 s⁻¹.

A word on the Km: it is the concentration of substrate that gives half-maximal velocity. The term Vmax denotes the top rate of the reaction or transport when substrate is in excess. The kcat is the number of substrate molecules converted per active site and unit of time at saturation. By kcat/Km is commonly meant the second-order rate constant that governs catalysis at low substrate concentration.
